This note sets out measurements from publication PMC3335734.

The target of experiment [1] is T1, wild-type FliM (E. coli) (UniProt P06974).
T1 sequence: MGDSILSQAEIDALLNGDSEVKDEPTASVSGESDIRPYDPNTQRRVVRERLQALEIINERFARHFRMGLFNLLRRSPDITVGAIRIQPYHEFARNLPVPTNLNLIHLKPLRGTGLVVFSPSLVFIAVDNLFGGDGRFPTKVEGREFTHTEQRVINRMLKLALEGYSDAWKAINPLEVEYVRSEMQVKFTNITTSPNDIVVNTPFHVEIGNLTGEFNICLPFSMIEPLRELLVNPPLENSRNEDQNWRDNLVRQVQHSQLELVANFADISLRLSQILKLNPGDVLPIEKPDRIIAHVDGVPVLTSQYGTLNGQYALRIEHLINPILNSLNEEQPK

For experiment [2], the target named is T2, FliM-YFP (E. coli) (UniProt P06974).
T2 sequence: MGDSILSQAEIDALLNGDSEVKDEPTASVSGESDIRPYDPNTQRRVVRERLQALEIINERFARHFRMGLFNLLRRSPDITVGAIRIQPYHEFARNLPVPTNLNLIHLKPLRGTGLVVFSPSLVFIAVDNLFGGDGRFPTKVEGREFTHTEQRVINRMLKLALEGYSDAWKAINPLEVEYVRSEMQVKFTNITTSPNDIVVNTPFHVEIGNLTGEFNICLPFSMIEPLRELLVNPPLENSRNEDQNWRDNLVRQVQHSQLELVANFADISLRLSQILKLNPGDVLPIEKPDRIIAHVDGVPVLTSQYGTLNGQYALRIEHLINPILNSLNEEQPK

B1: CheY-P (natural protein)
chain: MADKELKFLVVDDFSTMRRIVRNLLKELGFNNVEEAEDGVDALNKLQAGGYGFVISDWNMPNMDGLELLKTIRADGAMSALPVLMVTAEAKKENIIAAAQAGASGYVVKPFTAATLEEKLNKIFEKLGM
modifications: phosphorylated (CheY-P); residue not given
In experiment [1], B1 gave a CW bias of motors, bead assay, cheR cheB cells expressing wild-type FliM of 58%; a speed of motors, bead assay, cheR cheB cells expressing wild-type FliM of 51.5 Hz; a switching rate of motors, bead assay, cheR cheB cells expressing wild-type FliM of 3.4 s⁻¹. In experiment [2], the CW bias of motors, bead assay, cheR cheB cells expressing FliM-YFP was found to be 61%; the speed of motors, bead assay, cheR cheB cells expressing FliM-YFP was determined as 50.4 Hz; the switching rate of motors, bead assay, cheR cheB cells expressing FliM-YFP was determined as 3.8 s⁻¹.
